This data set is described as follows: label from the status in PepcDB records.
For “MASRLGKKRLFLVWSCLVSILPGMAQTEKLIDYVNPFVGTDGYGNVYPGAQIPFGGIQMSPDTDSKYYDAASGYKYNHSTLLGFSLTHLSGTGIPDLGDFLFIPGTGEMKLDPGTREEPEKGYRSRYSHEKEWASPNYYAVELSDYGVKAEMTSGVRSGMFRFTYPQSDKAFIMIDMNHTLWQSCEWANLRMENDSTITGYKLVKGWGPERHIYFTATFSKKLTGLRFMQNKKPVIYNTSRFRSSYEAWGKNLMACISFDTKAGEEVIVKTAISSVSTNGAKNNMAELAGLAFDELKAKGEALWEKELGKYTLTADRKTKRTFYTSAYHAALHPFIFQDVDGQFRGLDKNIEKAEGFTNYTVFSLWDTYRALHPWFNLVQQEVNADIANSMLAHYDKSVEKMLPVWSFYGNETWCMIGYHAVSVLADMIVKGVKGFDYERAYEAMKTTAMNPNYDCLPEYRMMGYVPFDKEAESVSKTLEYAYDDYCMAQAAKALGKEDDYRYFLNRALSYQTLIDPETKYMRGKDSQGNWRTPFTPVAYQGPGSVNGWGDITEGFTVQYTWYVPQDVQGYINEAGENWFRNRLDELFTVELPDDIPGAHDIQGRIGAYWHGNEPCHHVAYLYNYLKEPWKCQKWVRTIADRFYGDTPDALSGNDDCGQMSAWYMFNCIGFYPVAPSSNMYNIGSPCVEAITVRMSNGKVIEMVADNWSPKNVYVKELYVNGKKYDKSYLKYEDIRDGVKLRFVMSSKPNYKRAVSDEAVAPSLSLPGKTMKYQANFSEKKKSGNPVFKGWYADPEGVVFGDEYWIYPTYSAPYDEQTFMDAFSSKDLVNWTKHPKVISKENISWLRRALWAPAVLSANDKYYLFFGANDIQNNNEVGGIGVATSDSPAGPFKDALGKPLIDKIVHGAQPIDQFVFKDDDGQYYMYYGGWGHCNMVKMAPDLLSIVPFEDGTMYKEVTPENYVEGPFMLKRNGKYYFMWSEGGWGLPNYSVAYSISDSPFGPFKRVGKILEQDLSVATGAGHHSVIKGAGEDEWYIVYHRRPLGETAANSRATCIDRMYFDENGYIKPVKMTFEGVLPSPLDSTK”, the protein production entry is reported as “failed”.

Turning to “MASSDRGTSTLQGWHALQTLWRGDQRSVIQGLPHSQLAPAWQLLLLGDGSPTRHLQLLTGEPTAVDVIEMAPIADQDDGAPPPIRAIAGPRLRRQVWLRTASGQRLAYATSWWTQQRVDAYLRDRAQPIWANLADLRTELYRDIQGVEYGDSAALSEAFGQTGPFWGRYYLFWHQGQPLTLIYEVFSPAIATYLGPSTPQPVV”, the protein production entry is listed as “failed”.

Turning to “MASSKELCSIREWAPLTEVIERIPARLQRGFFPANLNLTCVDATEEFLAMGSDAGIVFWYNRHTGEMQKLKAEVATRITCVRVVNSVEYMVAAGCANGQVSIFQIQKELPRDLDLVAPCTKSRPIERYTIRDLHKCVVSCCEWSKNGMKLYSGDRQGVVVLTELDYQAHLSKSVEILSEAYEIVQLSVRQSYLLVATLYRCIVCQMDAQTSQWNITQVGKKDRKQLIDCGAIFLKKQEANKPQLVCGRPGLRFWVADAAGNVSKTVIFRDAVLRSPTWEIPILNPKQRSEPSGTHHTSASTSSTRHSGLADGDVGYVASSNFRQLYLYDGHDSLLVTHDDATLYVLNLDRLKVEAVARGLRKILDFCVCGKEIFVLEGNRTLLRLAPLPEPPNKTAKVIFNPLMPPPVPVLGSHLSQLESPIELQAEPVLQNAEECFELSPVEQLNLNVPIEIAVESPLTQQNRRLEIFRRIGEMDFEQSIVHTTRKTSVGKPPEASGVGIVEIGHETHELRLPLTNAATLMEASYCQMENNGLASPLDMKAAFLQHLPDALSPTTLQKTVAEKAKTLAAELDLPEVHLAPLSQEELHAVQAQTPQISDPLIRCYPTHLEEASIQTSSRENATNPADDYHVGEPVDGIRSFGVSKRKMAPLKFVLSQPKPTLKLEENRDDEEYTSFLPDFRRAGDPLAIHKETPATSDSNTSSEWEFLDN”, the protein production result is reported as “failed”.

As for “MASSTDQNLMDLSDKDTREKLSFWDRRVDPMAPLTDRQTDSILELRAAAEETLLPAELPIEDICSLSSRSLRSSFTAALPESTEEVLLQGFQMLELHNHRIETAQQFFSWFSKLQVQMDQDEASKYRKTRDVLNGYQEQCDAILNDVNTALDHLDSLQKQYLFVSTKTGTLHEACEQLLKEQSELVDLAESIQEKLSYFNELENINTKLNSPTLSVNSEGFVPMLSKLDECIEYVSSHPNFKDYPVYLTKFKQCLSKAMQLIKSHTVNTLQNLTGQLSKRDPLGAPSA”, the protein production entry was “failed”.

Source of the values: a protein production outcome set (Wang et al. 2014).
